Article doi:10.1101/2025.11.12.688043 (bioRxiv, 2025)

Molecular target: the molecule itself
Assay: cryo-EM structure

B1: Saccharomyces cerevisiae TOK1, wild type (natural protein, UniProt P40310 1-691, looked up)
chain: MTRFMNSFAKQTLGYGNMATVEQESSAQAVDSHSNNTPKQAKGVLAEELKDALRFRDERVSIINAEPSSTLFVFWFVVSCYFPVITACLGPVANTISIACVVEKWRSLKNNSVVTNPRSNDTDVLMNQVKTVFDPPGIFAVNIISLVLGFTSNIILMLHFSKKLTYLKSQLINITGWTIAGGMLLVDVIVCSLNDMPSIYSKTIGFWFACISSGLYLVCTIILTIHFIGYKLGKYPPTFNLLPNERSIMAYTVLLSLWLIWGAGMFSGLLHITYGNALYFCTVSLLTVGLGDILPKSVGAKIMVLIFSLSGVVLMGLIVFMTRSIIQKSSGPIFFFHRVEKGRSKSWKHYMDSSKNLSEREAFDLMKCIRQTASRKQHWFSLSVTIAIFMAFWLLGALVFKFAENWSYFNCIYFCFLCLLTIGYGDYAPRTGAGRAFFVIWALGAVPLMGAILSTVGDLLFDISTSLDIKIGESFNNKVKSIVFNGRQRALSFMVNTGEIFEESDTADGDLEENTTSSQSSQISEFNDNNSEENDSGVTSPPASLQESFSSLSKASSPEGILPLEYVSSAEYALQDSGTCNLRNLQELLKAVKKLHRICLADKDYTLSFSDWSYIHKLHLRNITDIEEYTRGPEFWISPDTPLKFPLNEPHFAFMMLFKNIEELVGNLVEDEELYKVISKRKFLGEHRKTL
stoichiometry N: 2
